B1: Equine rhinitis B virus 1 (nucleic acid)
DNA: CGACAGGCACAGGTCGCTCCGAGTTCTAGTAGTGTGGGAACTTGTTACTACTGATGAAACGAGGTAGTGACACTCAGTACCTGCGAACGAGGTCGGGGCCCTCCCTTCTTCCTTCACCCAACTTTCACTTTTCGTTCCACTTTAGCAGGGGTCTTCTTTCTATCCCCCTGGCGGCATTGGAACTAGCCGTCGCGTCTTAACGCGCAGCCCTGAAGGCCCCACACCTTGTGGATCTTGCCGTGGGTATGTTTCTGGCATGTGTTTCTCAAGCCTGCAACCGAAGCCGAACAGCCACATGAACAGTTTGAGCGTGGTAGCGCTGTGTGAGTTGGCGGTGGATCCCCCTCGTGGTAACACGAGCCCCCGTGGCCAAAAGCCCAGTGTTTACAGCACCTCTCACATCCAGGACGACCCCATCCTGGCGCTCACTCTTAGTAGTATGGCTTAGTACGCATTAGGTGGTAAGCCGAGCTCTCCCTCGGCCTTGTTCTGAATGCACACATGTCTAGGGGCTAAGGATGTCCTACAGGTACCCGCACGTAACCTTCAGAGAGTGCGGATCTGAGTAGGAGACCGTGGTGCACTGCTTTACAGATGCAGCCCGGTTTAAAAAGCGTCTATGCCCCTACAGGGTAGCGGTGGGCCGCGCCCTTTCCTTTTAAAACTACTTGTTCT
B2: Falcon picornavirus (nucleic acid)
DNA: CGCTTGGAATAAGTTGAGAGGAATTATGCATGCTAGTTGTGTTTGTTTACAACTAATTGTTCTAATCCAAGTGAAGCTCTTCGCTTGGGGCGGCACGACACTTGCCGTAATTCTTCTACCGTCCCTCCACACCTTGTGGATGAAGGGCCGGATGTGTGGCCTCTGGCTAACCCCTCTCTCTGGGGTGATGCTACTGGATGTTTTACTCCTAGACCAAATCACATGAACTCCTCTTGATCCACTTCGGTGGGGCTATGAGCCTGCGGATTAATAGCTGGCGACAGCTACCCCAGGGGCCAAAAGCCACGGTGTTAGCAGCACCCTCATAGTCTGATGCCCAAGGGCTGATGTTGGGAGCTAGTAGTGTGTGTCTGGCCTATGTTTAGGACTTCTGGCCAAGCGCAGAGGAGTGGGGCTGAAGGATGCCCAGAAGGTACCCGTAGGTAACCTTAAGAGACTATGGATCTGATCTGGGGCCCCCTCACGTGGCTTTACCACGTGTTGGGGGTTAAAAAACGTCTAGGCCCCACCAGCCCACGGGAGTGGGCTTTCCCTTAAAAAGCCCAACAATATTTATGGTGACAATTCACTGTTTCTTCTTTGCAATTTTTGTATTCTTGGACTCCTTATTTTTTGTTTGCTTGATTTTAGTGGACATTCAGATTCAAATACAAA
B3: Carp picornavirus 1 (nucleic acid)
DNA: AGCTACAGGAAAGAGAGAGATAATCACAGCACATAAATACAACTACAGAAGAGAGCCTTTCCCTGAGCACTATTTACAGCAAACCACGCTGGGAAAAGTGGTAGCATGACCCACTTACGGGTTACTTAGTATAGGATTTTAATATCTTCGATTCTTTATTTTCTTTTCTTAACTAAGTTCGCCCGGACTTTATCCGTGTTTTATTTTAGTTTAAGCAAAATTGAGTAACTAAGTTTTTAACCTGCCAAATGGTGAGAAGTAACTCTGTGAAAATACCATTTGTGCATGAAATTGTCTTGAAAACTCTTAGGCTTTTGGGGGGTCCCACTGCTGTTTGGAGGACTATTGACAGACTCTATTGTAGTTGAGTAGTGACTAATGATAACGATTTGCGTATTACGCAATGGGCTGTACCCGTTAGATTTAGTATGCCGGGGGGAGGGGTCCCACTGGATTGCACTATGTAACCTGACAGGGCGTCTGCCGACGCACTACAATGAGGATAAGATCGGCTGTTTTTATTT

For the data set, the system named is HEK293 cells. The data set is classed as cell-based, human. The note with it: luminescence from secreted Gluc in supernatant 24 hours after transfection of HEK293 cells; circular RNA encoding Gluc with the named IRES (UTR truncated to 675 nt).
On to B1, for which the Expression is listed as 1.01E+05.

Regarding B2, the Expression is given as 3.08E+06.

As for B3, the Expression came out at 1.13E+05.

(Values after patent US20230226096A1 (Orna Therapeutics, Inc., priority 2020, published 2023).)
